Measurements as given in IntAct's records for PubMed 22705791.

B1: Double-strand break repair protein MRE11 (Saccharomyces cerevisiae), P32829 (parent)
chain: MDYPDPDTIRILITTDNHVGYNENDPITGDDSWKTFHEVMMLAKNNNVDMVVQSGDLFHVNKPSKKSLYQVLKTLRLCCMGDKPCELELLSDPSQVFHYDEFTNVNYEDPNFNISIPVFGISGNHDDASGDSLLCPMDILHATGLINHFGKVIESDKIKVVPLLFQKGSTKLALYGLAAVRDERLFRTFKDGGVTFEVPTMREGEWFNLMCVHQNHTGHTNTAFLPEQFLPDFLDMVIWGHEHECIPNLVHNPIKNFDVLQPGSSVATSLCEAEAQPKYVFILDIKYGEAPKMTPIPLETIRTFKMKSISLQDVPHLRPHDKDATSKYLIEQVEEMIRDANEETKQKLADDGEGDMVAELPKPLIRLRVDYSAPSNTQSPIDYQVENPRRFSNRFVGRVANGNNVVQFYKKRSPVTRSKKSGINGTSISDRDVEKLFSESGGELEVQTLVNDLLNKMQLSLLPEVGLNEAVKKFVDKDEKTALKEFISHEISNEVGILSTNEEFLRTDDAEEMKALIKQVKRANSVRPTPPKENDETNFAFNGNGLDSFRSSNREVRTGSPDITQSHVDNESRITHISQAESSKPTSKPKRVRTATKKKIPAFSDSTVISDAENELGDNNDAQDDVDIDENDIIMVSTDEEDASYGLLNGRKTKTKTRPAASTKTASRRGKGRASRTPKTDILGSLLAKKRK
partner: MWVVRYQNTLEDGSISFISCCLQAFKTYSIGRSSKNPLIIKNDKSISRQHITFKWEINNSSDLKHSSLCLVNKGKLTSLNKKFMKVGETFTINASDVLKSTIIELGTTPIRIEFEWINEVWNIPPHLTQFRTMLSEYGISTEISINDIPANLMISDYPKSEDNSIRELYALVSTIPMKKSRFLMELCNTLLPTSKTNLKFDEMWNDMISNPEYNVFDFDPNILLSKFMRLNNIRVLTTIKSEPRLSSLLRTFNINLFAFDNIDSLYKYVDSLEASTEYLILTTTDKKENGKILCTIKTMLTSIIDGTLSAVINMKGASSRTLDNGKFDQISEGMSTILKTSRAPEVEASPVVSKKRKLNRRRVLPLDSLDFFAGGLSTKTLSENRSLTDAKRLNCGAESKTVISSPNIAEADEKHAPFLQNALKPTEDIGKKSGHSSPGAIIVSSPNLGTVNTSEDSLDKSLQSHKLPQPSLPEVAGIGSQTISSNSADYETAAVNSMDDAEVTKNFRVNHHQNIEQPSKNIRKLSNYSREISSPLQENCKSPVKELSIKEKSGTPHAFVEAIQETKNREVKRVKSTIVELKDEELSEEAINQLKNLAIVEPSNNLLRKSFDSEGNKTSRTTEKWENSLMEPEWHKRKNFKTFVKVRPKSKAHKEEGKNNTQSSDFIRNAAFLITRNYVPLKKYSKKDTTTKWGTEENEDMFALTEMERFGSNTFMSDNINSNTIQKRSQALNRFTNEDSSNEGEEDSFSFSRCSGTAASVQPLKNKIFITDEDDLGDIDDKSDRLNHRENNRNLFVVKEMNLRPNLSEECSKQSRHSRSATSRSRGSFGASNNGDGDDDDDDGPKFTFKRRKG

Variants of: B1
Conditions: with xrs2_yeast XRS2, P33301

Variant	effect of a mutation on the interaction
R76K	disrupting interaction strength
R76A	disrupting interaction strength

Other lines, results leading:

effect of a mutation on the interaction	Variant
disrupting interaction strength	D109G
disrupting interaction strength	N113S
